Laboratory results as given in patent US8470780B2, “Methods and compositions related to targeting wounds, regenerating tissue, and tumors” (Sanford-Burnham Medical Research Institute, priority 2006, dated 2013).

Experiments:
[1] = tested on: full thickness excision wounds in the dorsal skin; test: Skin wound healing treatment with decorins; assay type: in vivo, mice
Procedure: Next, the effect of the homing peptide decorins on wound healing was examined. The daily dose of 40 μg/day was chosen based on previous decorin studies (Seidler 2006; Yang 1999). The dose was doubled on Days 4-6, coincident with the peak in TGF-β expression in wounds (Brunner 2004; Yang 1999). The treatments were started on Day 3 after wounding, when granulation tissue first forms in wounds (Brunner 2004), and continued for 7,9, or 11 days in three independent treatment experiments. Several parameters commonly used to assess wound repair and scarring were measured (Ashcroft 1999; Cheon 2006; Shah 1995). […]
(§1) The treatments were started three days after wounding and consisted of daily tail vein injections. […] The ratio was reversed from Day 7 based on previously determined homing profiles of CRK and CAR phage to wounds at different time-points. The wounds were inspected and photographed daily, and scored for complete re-epithelialization. […]
Image analysis and quantification of granulation tissue/wound area, and hyperproliferative epidermis were done using ImageJ program (NIH, Bethesda, […].). The wounds were cut in the middle, one section from each side of the wound was evaluated, and the average of these two values was used in the analysis. The length of hyperproliferative epidermis and size of the wound tissue were determined from the Masson trichrome stained tissue sections. […]

CHO-K cells = test: CHO-K cell proliferation with decorins; assay type: cell-based, Chinese hamster; details: 0.3 μg/ml/day of decorins
Procedure: The effect of decorin preparations on CHO-K cell proliferation was determined as described previously (Yamaguchi 1990; Yamaguchi 1988). The cells were grown in media containing fetal bovine serum that had been dialyzed in a dialysis cassette (Pierce, Rockford, Ill.). The cells were plated in duplicate at a density of 2×10^4 cells per well in 24-well plates and cultured in 600 μl of culture media. Half of the medium was replaced daily with fresh medium containing decorin. Cells were collected by trypsinization, washed and resuspended in 1 ml of PBS containing 2 μg/ml of propidium iodide (PI) and 20,000 CountBright counting beads (Invitrogen, Carlsbad, Calif.), and analyzed by counting 1,000 beads in FACS. Cell number was also determined by hemocytometer.

[2] = tested on: full thickness skin wounds; test: Accumulation of intravenously injected decorins in wound tissue (anti-6-histidine tag staining); assay type: in vivo, mice; details: daily intravenous injections Days 3-5; evaluated Day 5
Procedure: Mice with full thickness skin wounds, received daily intravenous injections as indicated on Days 3-5 after the wounding (n=4 per group, 2 wounds per animal). On Day 5, the presence of decorins was evaluated with anti-6-histidine tag antibody (which stains brown) by examining two sections from each wound.
Six 8-week-old male BALB/c mice were anesthetized with intraperitoneally-injected 2.5% avertin Skin was shaved, cleaned, and disinfected with betadine and 70% alcohol. All animal experiments received approval from the IACUC of Burnham Institute for Medical Research. Treatment trials were conducted on mice that had circular, 8 mm-diameter, full thickness (including panniculus carnosus muscle) excision wounds in the dorsal skin. […]
as §1
Frozen sections were fixed in acetone for 10 min and pre-incubated with 0.5% blocking reagent for 1 hr (NEN Life Sciences, Boston, Mass.). […] The primary antibodies were detected with corresponding secondary antibodies, and each staining experiment included slides stained with species-matched immunoglobulins as negative controls. […]

B1: decorin: recombinant his-tagged human decorin, small leucine-rich chondroitin sulfate proteoglycan (protein, UniProt P07585 31-359, looked up)
Decorin: DEASGIGPEVPDDRDFEPSLGPVCPFRCQCHLRVVQCSDLGLDKVPKDLPPDTTLLDLQNNKITEIKDGDFKNLKNLHALILVNNKISKVSPGAFTPLVKLERLYLSKNQLKELPEKMPKTLQELRAHENEITKVRKVTFNGLNQMIVIELGTNPLKSSGIENGAFQGMKKLSYIRIADTNITSIPQGLPPSLTELHLDGNKISRVDAASLKGLNNLAKLGLSFNSISAVDNGSLANTPHLRELHLDNNKLTRVPGGLAEHKYIQVVYLHNNNISVVGSSDFCPPGHNTKKASYSGVSLFSNPVQYWEIQPSTFRCVYVRSAIQLGNYK
modifications: His-tag
notes: recombinant his-tagged human decorin, small leucine-rich chondroitin sulfate proteoglycan
change in granulation tissue/scar area ([1]; Day 14 after wounding): no statistically significant changes
prevention of scar formation ([1]; equivalent doses): inactive
inhibition of CHO-K cell proliferation (CHO-K cells): inhibited the proliferation of the CHO-K cells at high concentrations
decorin staining in skeletal muscle underlying the skin wounds [2]: No decorin-staining
decorin staining in wounds [2]: weakly positive for decorin staining
